Measurements reported in US20140357577A1, “HIV Membrane Fusion Inhibitors” (priority 2011, published 2014).
Starred links: 1 amine or outer side, 2 acyl side, 3 side chain; linkers in the order of their positions; H or OH if unused. Positions of bridges follow the written chain, without caps; N, C: chain ends. Non-standard residues stand in square brackets, D forms with d. *: point of attachment. pXylylene = c1cc(C[*:2])ccc1C[*:1]; Palmitoyl = CCCCCCCCCCCCCCCC(=O)*; tBuAla = CC(C)(C)C[C@H](N)C(=O)O; Cha = N[C@@H](CC1CCCCC1)C(=O)O; Suc = O=C(CCC(=O)[*:2])[*:1]; B1 = not defined here

Target: gp41 of HIV-1 strain HXB2D with mutation V38A (HIV-1 strain HXB2D, UniProt P04578)
Assay: cell-based or functional assay

B1: peptide 56 (peptide)
peptide: Ac-ACYLACIEALIRAAQEQQEKNEAALR-NH2
modifications: linker 2-6 via pXylylene
SMILES: CC[C@H](C)[C@H](NC(=O)[C@H](CC(C)C)NC(=O)[C@H](C)NC(=O)[C@H](CCC(=O)O)NC(=O)[C@@H](NC(=O)[C@@H]1CSCc2ccc(cc2)CSC[C@H](NC(=O)[C@H](C)NC(C)=O)C(=O)N[C@@H](Cc2ccc(O)cc2)C(=O)N[C@@H](CC(C)C)C(=O)N[C@@H](C)C(=O)N1)[C@@H](C)CC)C(=O)N[C@@H](CCCNC(=N)N)C(=O)N[C@@H](C)C(=O)N[C@@H](C)C(=O)N[C@@H](CCC(N)=O)C(=O)N[C@@H](CCC(=O)O)C(=O)N[C@@H](CCC(N)=O)C(=O)N[C@@H](CCC(N)=O)C(=O)N[C@@H](CCC(=O)O)C(=O)N[C@@H](CCCCN)C(=O)N[C@@H](CC(N)=O)C(=O)N[C@@H](CCC(=O)O)C(=O)N[C@@H](C)C(=O)N[C@@H](C)C(=O)N[C@@H](CC(C)C)C(=O)N[C@@H](CCCNC(=N)N)C(N)=O
For B1, the “fold change in EC50, HIV-HXB2D V38A mutant” value (shortened to “fold change in EC50”) was 61 fold.

For Ac-ACY[Cha]ACIEALIRAAQEQQEKNEAALR-NH2 (linker 2-6 via B1; reading uncertain) [peptide 59], the “fold change in EC50” value was 18 fold.

B2: peptide 53 (peptide)
peptide: Ac-ECYAACIEELIRKAQEQQEKNEAALR-NH2
modifications: linker 2-6 via pXylylene
SMILES: CC[C@H](C)[C@H](NC(=O)[C@@H]1CSCc2ccc(cc2)CSC[C@H](NC(=O)[C@H](CCC(=O)O)NC(C)=O)C(=O)N[C@@H](Cc2ccc(O)cc2)C(=O)N[C@@H](C)C(=O)N[C@@H](C)C(=O)N1)C(=O)N[C@@H](CCC(=O)O)C(=O)N[C@@H](CCC(=O)O)C(=O)N[C@@H](CC(C)C)C(=O)N[C@H](C(=O)N[C@@H](CCCNC(=N)N)C(=O)N[C@@H](CCCCN)C(=O)N[C@@H](C)C(=O)N[C@@H](CCC(N)=O)C(=O)N[C@@H](CCC(=O)O)C(=O)N[C@@H](CCC(N)=O)C(=O)N[C@@H](CCC(N)=O)C(=O)N[C@@H](CCC(=O)O)C(=O)N[C@@H](CCCCN)C(=O)N[C@@H](CC(N)=O)C(=O)N[C@@H](CCC(=O)O)C(=O)N[C@@H](C)C(=O)N[C@@H](C)C(=O)N[C@@H](CC(C)C)C(=O)N[C@@H](CCCNC(=N)N)C(N)=O)[C@@H](C)CC
In the case of B2, the “fold change in EC50” value is reported as 34 fold.

B3: peptide 55 (peptide)
peptide: Suc-ENYLRLIEELIRKAQEQQEKNEAALRGSGK(Palmitoyl)-NH2
SMILES: CCCCCCCCCCCCCCCC(=O)NCCCC[C@H](NC(=O)CNC(=O)[C@H](CO)NC(=O)CNC(=O)[C@H](CCCNC(=N)N)NC(=O)[C@H](CC(C)C)NC(=O)[C@H](C)NC(=O)[C@H](C)NC(=O)[C@H](CCC(=O)O)NC(=O)[C@H](CC(N)=O)NC(=O)[C@H](CCCCN)NC(=O)[C@H](CCC(=O)O)NC(=O)[C@H](CCC(N)=O)NC(=O)[C@H](CCC(N)=O)NC(=O)[C@H](CCC(=O)O)NC(=O)[C@H](CCC(N)=O)NC(=O)[C@H](C)NC(=O)[C@H](CCCCN)NC(=O)[C@H](CCCNC(=N)N)NC(=O)[C@@H](NC(=O)[C@H](CC(C)C)NC(=O)[C@H](CCC(=O)O)NC(=O)[C@H](CCC(=O)O)NC(=O)[C@@H](NC(=O)[C@H](CC(C)C)NC(=O)[C@H](CCCNC(=N)N)NC(=O)[C@H](CC(C)C)NC(=O)[C@H](Cc1ccc(O)cc1)NC(=O)[C@H](CC(N)=O)NC(=O)[C@H](CCC(=O)O)NC(=O)CCC(=O)O)[C@@H](C)CC)[C@@H](C)CC)C(N)=O
In the case of B3, the “fold change in EC50” value is reported as 1 fold.

Ac-ACY[tBuAla]ACIEALIRAAQEQQEKNEAALR-NH2 (linker 2-6 via B1; reading uncertain) [peptide 60] was tested, and the “fold change in EC50” value was 18 fold.

In the case of Ac-ACYAACIEALIRAAQEQQEKNEAALR-NH2 (linker 2-6 via meta‑xylene) [peptide 65], the “fold change in EC50” value is reported as 16 fold.

B4: peptide 63 (peptide)
peptide: Ac-ACYWACIEALIRAAQEQQEKNEAALR-NH2
modifications: linker 2-6 via pXylylene
SMILES: CC[C@H](C)[C@H](NC(=O)[C@H](CC(C)C)NC(=O)[C@H](C)NC(=O)[C@H](CCC(=O)O)NC(=O)[C@@H](NC(=O)[C@@H]1CSCc2ccc(cc2)CSC[C@H](NC(=O)[C@H](C)NC(C)=O)C(=O)N[C@@H](Cc2ccc(O)cc2)C(=O)N[C@@H](Cc2c[nH]c3ccccc23)C(=O)N[C@@H](C)C(=O)N1)[C@@H](C)CC)C(=O)N[C@@H](CCCNC(=N)N)C(=O)N[C@@H](C)C(=O)N[C@@H](C)C(=O)N[C@@H](CCC(N)=O)C(=O)N[C@@H](CCC(=O)O)C(=O)N[C@@H](CCC(N)=O)C(=O)N[C@@H](CCC(N)=O)C(=O)N[C@@H](CCC(=O)O)C(=O)N[C@@H](CCCCN)C(=O)N[C@@H](CC(N)=O)C(=O)N[C@@H](CCC(=O)O)C(=O)N[C@@H](C)C(=O)N[C@@H](C)C(=O)N[C@@H](CC(C)C)C(=O)N[C@@H](CCCNC(=N)N)C(N)=O
For B4, the “fold change in EC50” value was 22 fold.

Ac-ACYAACIEALIRAAQEQQEKNEAALR-NH2 (linker 2-6 via 2,7‑dimethylnaphthyl) [peptide 66] was tested, and the “fold change in EC50” value was 66 fold.

B5: peptide 61 (peptide)
peptide: Ac-ACYFACIEALIRAAQEQQEKNEAALR-NH2
modifications: linker 2-6 via pXylylene
SMILES: CC[C@H](C)[C@H](NC(=O)[C@H](CC(C)C)NC(=O)[C@H](C)NC(=O)[C@H](CCC(=O)O)NC(=O)[C@@H](NC(=O)[C@@H]1CSCc2ccc(cc2)CSC[C@H](NC(=O)[C@H](C)NC(C)=O)C(=O)N[C@@H](Cc2ccc(O)cc2)C(=O)N[C@@H](Cc2ccccc2)C(=O)N[C@@H](C)C(=O)N1)[C@@H](C)CC)C(=O)N[C@@H](CCCNC(=N)N)C(=O)N[C@@H](C)C(=O)N[C@@H](C)C(=O)N[C@@H](CCC(N)=O)C(=O)N[C@@H](CCC(=O)O)C(=O)N[C@@H](CCC(N)=O)C(=O)N[C@@H](CCC(N)=O)C(=O)N[C@@H](CCC(=O)O)C(=O)N[C@@H](CCCCN)C(=O)N[C@@H](CC(N)=O)C(=O)N[C@@H](CCC(=O)O)C(=O)N[C@@H](C)C(=O)N[C@@H](C)C(=O)N[C@@H](CC(C)C)C(=O)N[C@@H](CCCNC(=N)N)C(N)=O
With B5 the “fold change in EC50” value was 20 fold.

B6: peptide 62 (peptide)
peptide: Ac-ACYVACIEALIRAAQEQQEKNEAALR-NH2
modifications: linker 2-6 via pXylylene
SMILES: CC[C@H](C)[C@H](NC(=O)[C@H](CC(C)C)NC(=O)[C@H](C)NC(=O)[C@H](CCC(=O)O)NC(=O)[C@@H](NC(=O)[C@@H]1CSCc2ccc(cc2)CSC[C@H](NC(=O)[C@H](C)NC(C)=O)C(=O)N[C@@H](Cc2ccc(O)cc2)C(=O)N[C@@H](C(C)C)C(=O)N[C@@H](C)C(=O)N1)[C@@H](C)CC)C(=O)N[C@@H](CCCNC(=N)N)C(=O)N[C@@H](C)C(=O)N[C@@H](C)C(=O)N[C@@H](CCC(N)=O)C(=O)N[C@@H](CCC(=O)O)C(=O)N[C@@H](CCC(N)=O)C(=O)N[C@@H](CCC(N)=O)C(=O)N[C@@H](CCC(=O)O)C(=O)N[C@@H](CCCCN)C(=O)N[C@@H](CC(N)=O)C(=O)N[C@@H](CCC(=O)O)C(=O)N[C@@H](C)C(=O)N[C@@H](C)C(=O)N[C@@H](CC(C)C)C(=O)N[C@@H](CCCNC(=N)N)C(N)=O
With B6 the “fold change in EC50” value was 15 fold.

In the case of Ac-ACYAACIEALIRAAQEQQEKNEAALR-NH2 (linker 2-6 via ortho‑xylene) [peptide 64], the “fold change in EC50” value is reported as 15 fold.

B7: peptide 54 (peptide)
peptide: Ac-ACYLACIEALIRAAQEQQEKNEAALL-NH2
modifications: linker 2-6 via pXylylene
SMILES: CC[C@H](C)[C@H](NC(=O)[C@H](CC(C)C)NC(=O)[C@H](C)NC(=O)[C@H](CCC(=O)O)NC(=O)[C@@H](NC(=O)[C@@H]1CSCc2ccc(cc2)CSC[C@H](NC(=O)[C@H](C)NC(C)=O)C(=O)N[C@@H](Cc2ccc(O)cc2)C(=O)N[C@@H](CC(C)C)C(=O)N[C@@H](C)C(=O)N1)[C@@H](C)CC)C(=O)N[C@@H](CCCNC(=N)N)C(=O)N[C@@H](C)C(=O)N[C@@H](C)C(=O)N[C@@H](CCC(N)=O)C(=O)N[C@@H](CCC(=O)O)C(=O)N[C@@H](CCC(N)=O)C(=O)N[C@@H](CCC(N)=O)C(=O)N[C@@H](CCC(=O)O)C(=O)N[C@@H](CCCCN)C(=O)N[C@@H](CC(N)=O)C(=O)N[C@@H](CCC(=O)O)C(=O)N[C@@H](C)C(=O)N[C@@H](C)C(=O)N[C@@H](CC(C)C)C(=O)N[C@@H](CC(C)C)C(N)=O
For B7, the “fold change in EC50” value was 31 fold.

In the case of Ac-ANYAALIEALIRAAQEQQEKNEAALR-NH2 [peptide 2], the “fold change in EC50” value is reported as 61 fold.

B8: peptide 57 (peptide)
peptide: Ac-ACYIACIEALIRAAQEQQEKNEAALR-NH2
modifications: linker 2-6 via pXylylene
SMILES: CC[C@H](C)[C@@H]1NC(=O)[C@H](Cc2ccc(O)cc2)NC(=O)[C@@H](NC(=O)[C@H](C)NC(C)=O)CSCc2ccc(cc2)CSC[C@@H](C(=O)N[C@H](C(=O)N[C@@H](CCC(=O)O)C(=O)N[C@@H](C)C(=O)N[C@@H](CC(C)C)C(=O)N[C@H](C(=O)N[C@@H](CCCNC(=N)N)C(=O)N[C@@H](C)C(=O)N[C@@H](C)C(=O)N[C@@H](CCC(N)=O)C(=O)N[C@@H](CCC(=O)O)C(=O)N[C@@H](CCC(N)=O)C(=O)N[C@@H](CCC(N)=O)C(=O)N[C@@H](CCC(=O)O)C(=O)N[C@@H](CCCCN)C(=O)N[C@@H](CC(N)=O)C(=O)N[C@@H](CCC(=O)O)C(=O)N[C@@H](C)C(=O)N[C@@H](C)C(=O)N[C@@H](CC(C)C)C(=O)N[C@@H](CCCNC(=N)N)C(N)=O)[C@@H](C)CC)[C@@H](C)CC)NC(=O)[C@H](C)NC1=O
B8 was tested, and the “fold change in EC50” value was 23 fold.
